Results published in PMC12343972 (Nature Communications, 2025).

Biological target: T1, Rad50-3KA (Saccharomyces cerevisiae, UniProt P12753 1-1312, K192A;K195A;K196A)
T1 sequence: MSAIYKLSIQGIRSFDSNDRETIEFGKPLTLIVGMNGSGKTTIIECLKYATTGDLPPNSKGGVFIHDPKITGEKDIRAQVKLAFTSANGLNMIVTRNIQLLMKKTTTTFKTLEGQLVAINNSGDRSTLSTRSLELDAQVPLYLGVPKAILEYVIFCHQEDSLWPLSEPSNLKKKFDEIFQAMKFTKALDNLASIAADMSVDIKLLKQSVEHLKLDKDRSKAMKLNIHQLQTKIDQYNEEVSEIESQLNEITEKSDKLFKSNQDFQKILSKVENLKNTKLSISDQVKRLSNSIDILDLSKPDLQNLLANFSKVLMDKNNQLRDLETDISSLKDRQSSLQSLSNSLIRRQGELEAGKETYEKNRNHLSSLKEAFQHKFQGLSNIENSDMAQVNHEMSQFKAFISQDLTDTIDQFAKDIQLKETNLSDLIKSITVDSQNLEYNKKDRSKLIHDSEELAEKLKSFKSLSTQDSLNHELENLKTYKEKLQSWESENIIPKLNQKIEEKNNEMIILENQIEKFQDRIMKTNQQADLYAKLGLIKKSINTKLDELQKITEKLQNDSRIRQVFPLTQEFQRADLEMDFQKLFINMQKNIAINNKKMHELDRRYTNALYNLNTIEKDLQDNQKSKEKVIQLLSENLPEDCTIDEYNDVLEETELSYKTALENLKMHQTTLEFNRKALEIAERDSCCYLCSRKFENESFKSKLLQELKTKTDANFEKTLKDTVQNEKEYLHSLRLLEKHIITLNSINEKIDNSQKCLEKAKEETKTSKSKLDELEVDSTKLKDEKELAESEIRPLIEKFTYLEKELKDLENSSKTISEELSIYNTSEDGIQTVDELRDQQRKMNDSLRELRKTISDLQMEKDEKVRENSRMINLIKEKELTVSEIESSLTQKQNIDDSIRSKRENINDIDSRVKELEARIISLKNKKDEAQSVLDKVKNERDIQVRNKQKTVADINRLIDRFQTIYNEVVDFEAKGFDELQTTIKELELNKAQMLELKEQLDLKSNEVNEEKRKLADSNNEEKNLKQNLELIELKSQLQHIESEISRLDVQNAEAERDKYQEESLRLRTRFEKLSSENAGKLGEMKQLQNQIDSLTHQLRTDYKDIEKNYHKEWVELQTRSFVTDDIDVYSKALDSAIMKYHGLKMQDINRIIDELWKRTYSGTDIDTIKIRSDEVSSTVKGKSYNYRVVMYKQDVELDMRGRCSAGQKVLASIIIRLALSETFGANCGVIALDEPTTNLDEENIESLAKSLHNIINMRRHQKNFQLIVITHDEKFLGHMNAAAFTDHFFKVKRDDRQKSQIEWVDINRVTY
Assay: EMSA

B1: 83-mer dsDNA (EMSA) (dsDNA)
DNA 1: TTGATAAGAGGTCATTTTTGCGGATGGCTTAGAGCTTAATTGCTGAATCTGGTGCTGTAGCTCAACATGTTTTAAATATGCAA
DNA 2: TTGCATATTTAAAACATGTTGAGCTACAGCACCAGATTCAGCAATTAAGCTCTAAGCCATCCGCAAAAATGACCTCTTATCAA
B1: binds.
